# Results taken from IntAct's records for PubMed 31515488.
# B1: Keratin-associated protein 12-2 (Homo sapiens), P59991 (parent)
# chain: MCHTSCSSGCQPACCAPSPCQPACCVPSSCQASCCVPVGCQSSVCVPVSFKPAVCLPVSCQSSVCVPMSFKSAVCVPVSCQSSVCVPVSCRPIVCAAPSCQSSLCVPVSCRPVVYAAPSCQSSGCCQPSCTSVLCRPISYSISSCC
# partner: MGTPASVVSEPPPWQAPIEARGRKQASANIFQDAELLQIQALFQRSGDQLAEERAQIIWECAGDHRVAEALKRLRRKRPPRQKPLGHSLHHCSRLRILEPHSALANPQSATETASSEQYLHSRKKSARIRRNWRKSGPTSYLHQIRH
# B2: Germ cell-less protein-like 1 (Homo sapiens), Q96IK5 (parent)
# chain: MGSLSSRVLRQPRPALAQQAQGARAGGSARRPDTGDDAAGHGFCYCAGSHKRKRSSGSFCYCHPDSETDEDEEEGDEQQRLLNTPRRKKLKSTSKYIYQTLFLNGENSDIKICALGEEWSLHKIYLCQSGYFSSMFSGSWKESSMNIIELEIPDQNIDVEALQVAFGSLYRDDVLIKPSRVVAILAAACLLQLDGLIQQCGETMKETVNVKTVCGYYTSAGTYGLDSVKKKCLEWLLNNLMTHQNVELFKELSINVMKQLIGSSNLFVMQVEMDIYTALKKWMFLQLVPSWNGSLKQLLTETDVWFSKQRKDFEGMAFLETEQGKPFVSVFRHLRLQYIISDLASARIIEQDAVVPSEWLSSVYKQQWFAMLRAEQDSEVGPQEINKEELEGNSMRCGRKLAKDGEYCWRWTGFNFGFDLLVTYTNRYIIFKRNTLNQPCSGSVSLQPRRSIAFRLRLASFDSSGKLICSRTTGYQILTLEKDQEQVVMNLDSRLLIFPLYICCNFLYISPEKKN
# partner: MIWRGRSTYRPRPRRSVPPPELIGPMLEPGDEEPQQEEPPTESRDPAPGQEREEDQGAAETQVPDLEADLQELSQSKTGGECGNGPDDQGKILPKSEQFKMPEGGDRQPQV
# B3: DNA topoisomerase 3-beta-1 (Homo sapiens), O95985 (parent)
# chain: MKTVLMVAEKPSLAQSIAKILSRGSLSSHKGLNGACSVHEYTGTFAGQPVRFKMTSVCGHVMTLDFLGKYNKWDKVDPAELFSQAPTEKKEANPKLNMVKFLQVEGRGCDYIVLWLDCDKEGENICFEVLDAVLPVMNKAHGGEKTVFRARFSSITDTDICNAMACLGEPDHNEALSVDARQELDLRIGCAFTRFQTKYFQGKYGDLDSSLISFGPCQTPTLGFCVERHDKIQSFKPETYWVLQAKVNTDKDRSLLLDWDRVRVFDREIAQMFLNMTKLEKEAQVEATSRKEKAKQRPLALNTVEMLRVASSSLGMGPQHAMQTAERLYTQGYISYPRTETTHYPENFDLKGSLRQQANHPYWADTVKRLLAEGINRPRKGHDAGDHPPITPMKSATEAELGGDAWRLYEYITRHFIATVSHDCKYLQSTISFRIGPELFTCSGKTVLSPGFTEVMPWQSVPLEESLPTCQRGDAFPVGEVKMLEKQTNPPDYLTEAELITLMEKHGIGTDASIPVHINNICQRNYVTVESGRRLKPTNLGIVLVHGYYKIDAELVLPTIRSAVEKQLNLIAQGKADYRQVLGHTLDVFKRKFHYFVDSIAGMDELMEVSFSPLAATGKPLSRCGKCHRFMKYIQAKPSRLHCSHCDETYTLPQNGTIKLYKELRCPLDDFELVLWSSGSRGKSYPLCPYCYNHPPFRDMKKGMGCNECTHPSCQHSLSMLGIGQCVECESGVLVLDPTSGPKWKVACNKCNVVAHCFENAHRVRVSADTCSVCEAALLDVDFNKAKSPLPGDETQHMGCVFCDPVFQELVELKHAASCHPMHRGGPGRRQGRGRGRARRPPGKPNPRRPKDKMSALAAYFV
# partner: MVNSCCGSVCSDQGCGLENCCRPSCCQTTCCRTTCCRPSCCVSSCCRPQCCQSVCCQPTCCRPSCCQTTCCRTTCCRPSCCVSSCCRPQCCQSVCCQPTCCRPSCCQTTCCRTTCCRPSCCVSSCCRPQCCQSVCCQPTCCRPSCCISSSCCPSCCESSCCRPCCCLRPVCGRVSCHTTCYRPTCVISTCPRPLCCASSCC
# B4: ATP synthase mitochondrial F1 complex assembly factor 2 (Homo sapiens), Q8N5M1 (parent)
# chain: MWRSCLRLRDGGRRLLNRPAGGPSASMSPGPTIPSPARAYAPPTERKRFYQNVSITQGEGGFEINLDHRKLKTPQAKLFTVPSEALAIAVATEWDSQQDTIKYYTMHLTTLCNTSLDNPTQRNKDQLIRAAVKFLDTDTICYRVEEPETLVELQRNEWDPIIEWAEKRYGVEISSSTSIMGPSIPAKTREVLVSHLASYNTWALQGIEFVAAQLKSMVLTLGLIDLRLTVEQAVLLSRLEEEYQIQKWGNIEWAHDYELQELRARTAAGTLFIHLCSESTTVKHKLLKE
# partner: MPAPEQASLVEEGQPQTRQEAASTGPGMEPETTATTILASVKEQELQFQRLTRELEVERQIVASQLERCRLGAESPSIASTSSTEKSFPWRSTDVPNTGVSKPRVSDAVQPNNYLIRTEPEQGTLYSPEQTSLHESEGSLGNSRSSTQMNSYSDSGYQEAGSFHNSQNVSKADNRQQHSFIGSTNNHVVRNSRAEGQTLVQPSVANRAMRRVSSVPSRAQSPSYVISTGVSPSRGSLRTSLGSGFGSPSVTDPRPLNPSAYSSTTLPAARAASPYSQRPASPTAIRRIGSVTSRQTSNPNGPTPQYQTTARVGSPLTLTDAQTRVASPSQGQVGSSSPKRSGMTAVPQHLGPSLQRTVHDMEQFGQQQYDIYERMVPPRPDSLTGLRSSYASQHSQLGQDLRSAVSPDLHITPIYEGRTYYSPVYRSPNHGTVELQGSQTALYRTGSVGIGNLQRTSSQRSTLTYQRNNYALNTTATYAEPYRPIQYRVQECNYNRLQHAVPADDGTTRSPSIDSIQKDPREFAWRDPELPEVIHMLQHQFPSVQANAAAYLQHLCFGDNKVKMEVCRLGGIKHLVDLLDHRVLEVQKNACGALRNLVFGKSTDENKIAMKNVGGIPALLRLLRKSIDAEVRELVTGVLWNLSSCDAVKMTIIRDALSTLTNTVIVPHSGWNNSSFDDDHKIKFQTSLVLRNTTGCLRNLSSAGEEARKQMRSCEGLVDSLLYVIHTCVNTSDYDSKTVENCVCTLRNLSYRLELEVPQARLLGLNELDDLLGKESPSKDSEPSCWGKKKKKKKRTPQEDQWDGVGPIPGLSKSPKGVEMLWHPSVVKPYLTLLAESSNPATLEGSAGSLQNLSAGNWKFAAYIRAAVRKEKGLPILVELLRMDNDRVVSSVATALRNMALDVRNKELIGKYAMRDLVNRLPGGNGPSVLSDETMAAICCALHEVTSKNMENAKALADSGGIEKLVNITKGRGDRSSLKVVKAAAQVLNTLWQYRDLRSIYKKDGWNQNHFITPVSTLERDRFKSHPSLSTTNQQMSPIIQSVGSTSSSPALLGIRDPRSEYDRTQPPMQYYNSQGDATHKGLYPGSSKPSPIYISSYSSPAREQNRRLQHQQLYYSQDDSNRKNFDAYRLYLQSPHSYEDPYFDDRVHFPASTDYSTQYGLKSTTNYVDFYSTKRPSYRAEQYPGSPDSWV
# Variants of: B1
# Conditions: with avpi1_human AVPI1, Q5T686
row,effect of a mutation on the interaction,Variant
1,with no effect,MCHTSCSSGCQPACCAPSPCQPACCVPSSCQASCCVPVGCQSSVCVPVSFKPAVCLPVSCQSSVCVPMSFKSAVCVPVSCQSSVCVPVSCRPIVCAAPSCQSSLCVPVSCRPVVYAAPSCQSSGCCQPSCTSVLCRPISYSIPSCC

# Variants of: B2
# Conditions: with xage3_human XAGE3, Q8WTP9
row,effect of a mutation on the interaction,Variant
1,with no effect,MGSLSSRVLRQPRPALAQQAQGARAGGSARRPDTGDDAAGHGFCYCAGSHKRKRSSGSFCYCHPDSETDEDEEEGDEQQRLLNTPRRKKLKSTSKYIYQTLFLNGENSDIKICALGEEWSLHKIYLCQSGYFSSMFSGSWKESSMNVIELEIPDQNIDVEALQVAFGSLYRDDVLIKPSRVVAILAAACLLQLDGLIQQCGETMKETVNVKTVCGYYTSAGTYGLDSVKKKCLEWLLNNLMTHQNVELFKELSINVMKQLIGSSNLFVMQVEMDIYTALKKWMFLQLVPSWNGSLKQLLTETDVWFSKQRKDFEGMAFLETEQGKPFVSVFRHLRLQYIISDLASARIIEQDAVVPSEWLSSVYKQQWFAMLRAEQDSEVGPQEINKEELEGNSMRCGRKLAKDGEYCWRWTGFNFGFDLLVTYTNRYIIFKRNTLNQPCSGSVSLQPRRSIAFRLRLASFDSSGKLICSRTTGYQILTLEKDQEQVVMNLDSRLLIFPLYICCNFLYISPEKKN [I147V]
2,with no effect,MGSLSSRVLRQPRPALAQQAQGARAGGSARRPDTGDDAAGHGFCYCAGSHKRKRSSGSFCYCHPDSETDEDEEEGDKQQRLLNTPRRKKLKSTSKYIYQTLFLNGENSDIKICALGEEWSLHKIYLCQSGYFSSMFSGSWKESSMNIIELEIPDQNIDVEALQVAFGSLYRDDVLIKPSRVVAILAAACLLQLDGLIQQCGETMKETVNVKTVCGYYTSAGTYGLDSVKKKCLEWLLNNLMTHQNVELFKELSINVMKQLIGSSNLFVMQVEMDIYTALKKWMFLQLVPSWNGSLKQLLTETDVWFSKQRKDFEGMAFLETEQGKPFVSVFRHLRLQYIISDLASARIIEQDAVVPSEWLSSVYKQQWFAMLRAEQDSEVGPQEINKEELEGNSMRCGRKLAKDGEYCWRWTGFNFGFDLLVTYTNRYIIFKRNTLNQPCSGSVSLQPRRSIAFRLRLASFDSSGKLICSRTTGYQILTLEKDQEQVVMNLDSRLLIFPLYICCNFLYISPEKKN [E77K]
3,with no effect,MGSLSSRVLRQPRPALAQQAQGARAGGSARRPDTGDDAAGHGFCYCAGSHKRKRSSGSFCYCHPDSETDEDEEEGDEQQRLLNTPRRKKLKSTSKYIYQTLFLNGENSDIKICALGEEWSLHRIYLCQSGYFSSMFSGSWKESSMNIIELEIPDQNIDVEALQVAFGSLYRDDVLIKPSRVVAILAAACLLQLDGLIQQCGETMKETVNVKTVCGYYTSAGTYGLDSVKKKCLEWLLNNLMTHQNVELFKELSINVMKQLIGSSNLFVMQVEMDIYTALKKWMFLQLVPSWNGSLKQLLTETDVWFSKQRKDFEGMAFLETEQGKPFVSVFRHLRLQYIISDLASARIIEQDAVVPSEWLSSVYKQQWFAMLRAEQDSEVGPQEINKEELEGNSMRCGRKLAKDGEYCWRWTGFNFGFDLLVTYTNRYIIFKRNTLNQPCSGSVSLQPRRSIAFRLRLASFDSSGKLICSRTTGYQILTLEKDQEQVVMNLDSRLLIFPLYICCNFLYISPEKKN [K123R]
4,with no effect,MGSLSSRVLRQPRPALAQQAQGARAGGSARRPDTGDDAAGHGFCYCAGSHKRKRSSGSFCSCHPDSETDEDEEEGDEQQRLLNTPRRKKLKSTSKYIYQTLFLNGENSDIKICALGEEWSLHKIYLCQSGYFSSMFSGSWKESSMNIIELEIPDQNIDVEALQVAFGSLYRDDVLIKPSRVVAILAAACLLQLDGLIQQCGETMKETVNVKTVCGYYTSAGTYGLDSVKKKCLEWLLNNLMTHQNVELFKELSINVMKQLIGSSNLFVMQVEMDIYTALKKWMFLQLVPSWNGSLKQLLTETDVWFSKQRKDFEGMAFLETEQGKPFVSVFRHLRLQYIISDLASARIIEQDAVVPSEWLSSVYKQQWFAMLRAEQDSEVGPQEINKEELEGNSMRCGRKLAKDGEYCWRWTGFNFGFDLLVTYTNRYIIFKRNTLNQPCSGSVSLQPRRSIAFRLRLASFDSSGKLICSRTTGYQILTLEKDQEQVVMNLDSRLLIFPLYICCNFLYISPEKKN [Y61S]

# Variants of: B3
# Conditions: with kr412_human KRTAP4-12, Q9BQ66
row,effect of a mutation on the interaction,Variant
1,with no effect,R267W

# Variants of: B4
# Conditions: with pkp4_human PKP4, Q99569
row,effect of a mutation on the interaction,Variant
1,with no effect,MWRSCLRLRDGGRRLLNRPAGGPSASMSPGPTIPSPARAYAPPTERKRFYQNVSITQGEGGFEINLDHRKLKTPQAKLFTVPSEALAIAVATEWDSQQDTIKYYTMHLTTLCNTSLDNPTQRNKDQLIRAAVKFLDTDTICYRVEEPETLVELQRNEWDPIIEWAEKRYGVEISSSTSIMGPSIPAKTREVLVSHLASYNTWALQGIEFVAAQLKSMVLTLGLIDLRLTVEQAVLLSRLEGEYQIQKWGNIEWAHDYELQELRARTAAGTLFIHLCSESTTVKHKLLKE [E241G]
